Key:
[1] = system: [H][C@]12SCC(CSC(C(=O)O)c3ccccc3)=C(C(=O)O)N1C(=O)[C@H]2NC(=O)Cc1ccccc1; assay: purified protein, by the assay type; details: pH 7.2, 25.0 °C
[2] = system: [H][C@]12SCC(CS[C@H](Cc3ccccc3)C(=O)O)=C(C(=O)O)N1C(=O)[C@H]2NC(=O)Cc1ccccc1; assay: purified protein, by the assay type; details: pH 7.2, 25.0 °C
[3] = other: compound as substrate of NDM-1
[4] = other: compound as substrate of VIM-2

Question: Which Km [1, 3] does the source give for NDM-1 (Klebsiella pneumoniae) here?
Answer: Its Km is 14.0 ± 2 µM.

Question: What about the kcat [1, 3] of the same substance?
Answer: Its kcat is 13.1 s⁻¹.

Question: And the kcat/Km [1, 3]?
Answer: Its kcat/Km is 936000 M⁻¹ s⁻¹.

Question: What about the Km [2, 3] of the same substance?
Answer: The Km was 21.2 ± 4 µM.

Question: And the kcat [2, 3]?
Answer: The kcat was 17.4 s⁻¹.

Question: What about the kcat/Km [2, 3] of the same substance?
Answer: The kcat/Km was 821000 M⁻¹ s⁻¹.

Question: For VIM-2 (Escherichia coli), which Km [1, 4] is on record?
Answer: The Km was 8.28 ± 2 µM.

Question: What about the kcat [1, 4] of the same substance?
Answer: Its kcat is 4.06 s⁻¹.

Question: What about the kcat/Km [1, 4] of the same substance?
Answer: Its kcat/Km is 490000 M⁻¹ s⁻¹.

Question: And the Km [2, 4]?
Answer: The Km was 4.30 ± 1 µM.

Question: What about the kcat [2, 4] of the same substance?
Answer: Its kcat is 2.35 s⁻¹.

Question: And the kcat/Km [2, 4]?
Answer: The kcat/Km was 546000 M⁻¹ s⁻¹.

Source: publication PMC8273888
